Results taken from PMC8603391 (European biophysics journal : EBJ, 2015).

What was measured:
[1] = target: T1, GST-My16Ank (uncleaved glutathione S-transferase fusion of the myosin 16 ankyrin domain) (Rattus norvegicus, UniProt Q9ERC1-1 1-402); assay: SPR
T1 sequence (looked up): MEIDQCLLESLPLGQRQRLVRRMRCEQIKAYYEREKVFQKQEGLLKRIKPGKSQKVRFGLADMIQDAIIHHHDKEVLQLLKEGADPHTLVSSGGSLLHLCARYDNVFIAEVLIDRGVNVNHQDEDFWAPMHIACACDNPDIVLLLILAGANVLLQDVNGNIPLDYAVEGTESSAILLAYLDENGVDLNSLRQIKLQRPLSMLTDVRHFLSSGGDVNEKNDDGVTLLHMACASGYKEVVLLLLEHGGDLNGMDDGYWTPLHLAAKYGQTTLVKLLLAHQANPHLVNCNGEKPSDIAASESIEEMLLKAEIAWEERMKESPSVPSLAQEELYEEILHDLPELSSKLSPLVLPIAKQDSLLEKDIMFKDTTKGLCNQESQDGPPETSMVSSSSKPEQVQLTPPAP

[2] = target: T2, Myosin 16 ankyrin domain (My16Ank), GST tag cleaved (Rattus norvegicus, UniProt Q9ERC1-1 1-402); assay: SPR
T2 sequence (looked up): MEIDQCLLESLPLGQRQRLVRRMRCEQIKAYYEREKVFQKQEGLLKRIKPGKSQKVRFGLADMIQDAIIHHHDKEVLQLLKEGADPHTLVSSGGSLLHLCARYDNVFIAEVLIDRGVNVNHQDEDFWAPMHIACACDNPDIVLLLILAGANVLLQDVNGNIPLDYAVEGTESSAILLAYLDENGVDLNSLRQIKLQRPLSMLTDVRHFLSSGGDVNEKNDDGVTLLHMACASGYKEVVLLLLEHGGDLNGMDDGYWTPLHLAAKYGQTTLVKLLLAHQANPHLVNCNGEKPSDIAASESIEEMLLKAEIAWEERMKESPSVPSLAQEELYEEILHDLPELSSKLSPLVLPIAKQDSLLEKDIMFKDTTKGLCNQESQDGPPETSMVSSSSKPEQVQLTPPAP

- Ka [1]: 3.04e+06 M⁻¹
- Kd [1]: 329 nM
- koff [1]: 0.000473 s⁻¹
- kon [1]: 1440 M⁻¹ s⁻¹
- Ka [2]: 1.65e+06 M⁻¹
B1: recombinant His-tagged PP1cδ (protein phosphatase-1 catalytic subunit, δ isoform) (enzyme, UniProt P62140 1-327, looked up)
chain: MADGELNVDSLITRLLEVRGCRPGKIVQMTEAEVRGLCIKSREIFLSQPILLELEAPLKICGDIHGQYTDLLRLFEYGGFPPEANYLFLGDYVDRGKQSLETICLLLAYKIKYPENFFLLRGNHECASINRIYGFYDECKRRFNIKLWKTFTDCFNCLPIAAIVDEKIFCCHGGLSPDLQSMEQIRRIMRPTDVPDTGLLCDLLWSDPDKDVQGWGENDRGVSFTFGADVVSKFLNRHDLDLICRAHQVVEDGYEFFAKRQLVTLFSAPNYCGEFDNAGGMMSVDETLMCSFQILKPSEKKAKYQYGGLNSGRPVTPPRTANPPKKR
